Measurements reported in US20240309081A1 (QYUNS THERAPEUTICS, published 2024).

T1: human interleukin-33 (hIL-33) (human, UniProt O95760 112-270)
T1 construct: The immunogen was bought from Novoprotein; also called recombinant human interleukin-33
T1 sequence: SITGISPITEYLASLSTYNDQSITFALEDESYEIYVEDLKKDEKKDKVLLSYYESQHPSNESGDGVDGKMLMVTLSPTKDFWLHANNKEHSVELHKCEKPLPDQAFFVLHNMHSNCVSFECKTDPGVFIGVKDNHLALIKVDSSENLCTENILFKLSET

T2: interleukin-33 of rhesus monkeys (rhesus monkey, UniProt F7DLG4 112-269)
T2 construct: also called rhesus monkey IL-33
T2 sequence: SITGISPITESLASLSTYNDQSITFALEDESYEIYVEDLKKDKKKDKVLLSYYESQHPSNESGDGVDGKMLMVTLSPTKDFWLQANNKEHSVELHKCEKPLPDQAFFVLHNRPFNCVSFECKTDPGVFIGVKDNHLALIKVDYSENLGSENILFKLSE

T3: natural human interleukin-33 (human) (UniProt O95760)
T3 sequence (looked up): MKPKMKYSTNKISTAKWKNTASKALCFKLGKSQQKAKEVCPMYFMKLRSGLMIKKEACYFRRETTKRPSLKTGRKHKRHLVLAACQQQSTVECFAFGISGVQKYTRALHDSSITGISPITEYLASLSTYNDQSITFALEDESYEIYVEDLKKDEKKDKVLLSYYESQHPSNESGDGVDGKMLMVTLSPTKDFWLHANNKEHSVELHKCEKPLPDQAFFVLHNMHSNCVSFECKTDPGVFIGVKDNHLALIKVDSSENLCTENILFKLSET


Columns and labels:
[1] = target: T1, human interleukin-33 (hIL-33); experiment: SPR (Biacore T200, 25 C), antibody captured on Protein A chip, antigen as analyte, 1:1 model
Protocol: Commercialized Protein A chip was used to immobilize an appropriate amount of antibody by capture method, so that the Rmax was about 50 RU, and the capture flow rate was 10 μl/min. The antigen was diluted by gradient, the flow rate of the instrument was switched to 30 μl/min, and the antigen flowed through the reference channel and the channel of the immobilized antibody in order of concentration from low to high, and the buffer was used as a negative control. After each binding and dissociation, the chip was regenerated with glycine at pH 1.5. The 1:1 binding model in Kinetics option was selected for fitting using the analysis software that comes with the instrument, and the binding rate constant kₐ, the dissociation rate constant kd and the equilibrium dissociation constant KD value of the antibody were calculated.
In addition, the affinity of QX007N (HZD78-70) and Etokimab/ANB020, a monoclonal antibody against human interleukin-33 developed by AnaptysBio were compared, and the detection method for known antibodies was the same as that for QX007N. Particularly, Etokimab/ANB020 was self-made by constructing an expression plasmid according to the APE4909 sequence provided by the patent WO2015106080A2, and transiently transfecting ExpiCHO-S cells.

[2] = target: T2, interleukin-33 of rhesus monkeys; experiment: SPR (Biacore T200), antibody captured on Protein A chip
[3] = target: T3, natural human interleukin-33 (human); experiment: cell-based or functional assay
[4] = target: T1, human interleukin-33 (hIL-33); experiment: cell-based or functional assay

Kd [1] [nM]	koff [1] [s⁻¹]	kon [1] [M⁻¹ s⁻¹]	binding result [2]	inhibition of NF-KB/AP-1 signal transduction in HEK Blue IL-33 cells induced by natural human interleukin-33 (SEAP, OD630nm) [3] [ng/mL]	inhibition of NF-KB/AP-1 signal transduction in HEK Blue IL-33 cells induced by recombinant human interleukin-33 (SEAP, OD630nm) [4] [ng/mL]	neutralization of IFN-gamma release from human whole blood induced by recombinant human interleukin-33 [4] [ng/mL]	neutralization of IL-5 release from KU812 cells induced by recombinant human interleukin-33 (IL-5 ELISA) [4] [ng/mL]	Binder
1.23	0.000481	392000	no binding	–	–	–	–	QX007N (HZD78-70) (antibody, human IgG1, kappa, V domains shown, Humanized rabbit antibody, expressed in ExpiCHO-S cells and purified with Protein A; also called humanized 78#) VH: EVQLVESGGGLVQPGGSLRLSCAASGFSLSSYHMIWVRQAPGKGLEWVGVIYPNSNIYYATWAKGRFTISRDNSKNTLYLQMNSLRAEDTAVYYCARTIYVHVYSALSIWGQGTLVTVSS VL: AFQMTQSPSSVSASVGDRVTITCQASESVLNEVSWYQQKPGKAPKLLIYFASKLASGVPSRFSGSGSGTDFTLTISSLQPEDFATYYCQQDWSMDNIDNAFGGGTKVEIKR
0.869	0.000369	424000	–	2.5	6.05	31.9	44	Etokimab/ANB020 (antibody, INN chains, looked up, V domains shown) VH: QVQLMQSGAEVKKPGASVKVSCKASGYTFTSYWMHWVRQAPGQGLEWMGTIYPRNSNTDYNQKFKARVTMTRDTSTSTVYMELSSLRSEDTAVYYCARPLYYYLTSPPTLFWGQGTLVTVSS VL: DIQLTQSPSFLSASVGDRVTITCKASQDVGTAVAWYQQKPGKAPKLLIYWASTRHTGVPSRFSGSGSGTEFTLTISSLQPEDFATYYCQQAKTYPFTFGSGTKLEIK
